# T1: IRBP 271-290 (P2) peptide on I-A^b (mouse)
# T1 peptide: QTWEGSGVLPCVG
# Target: T1, IRBP 271-290 (P2) peptide on I-A^b
# Assay: multimer staining
row,binding result,Binder
1,recognises,1 (TCR) alpha TRAV12D-3 TRAJ13 CDR3: CALRAGSGTYQRF beta TRBV3 TRBJ2-7 CDR3: CASSLAGTGVYEQYF
2,recognises,3 (TCR) alpha TRAV16N TRAJ15 CDR3: CAMREGGGGRALIF beta TRBV15 TRBJ2-3 CDR3: CASSWGRGAETLYF
3,recognises,2 (TCR) alpha TRAV12-2 TRAJ47 CDR3: CALSVYANKMIF beta TRBV23 TRBJ2-4 CDR3: CSSSQTTNQNTLYF
4,recognises,5 (TCR) alpha TRAV9-2 TRAJ31 CDR3: CVLSAGNNRIFF beta TRBV20 TRBJ2-2 CDR3: CGASGPANTGQLYF
5,recognises,4 (TCR) alpha TRAV9-4 TRAJ31 CDR3: CAVSPHSNNRIFF beta TRBV2 TRBJ2-7 CDR3: CASSQEGLGGLGEQYF
